Laboratory results published in PMC9006895.

Key:
[1] = target: flotillin 2-MBP (Laodelphax striatellus); assay: BLI; Octet RED96e; biotinylated flotillin 2-MBP (5 μM) loaded on streptavidin biosensors; NP-GST 0 to 4,000 nM in 1× PBS; 25°C; buffer 20 mM NaH2PO4, 150 mM NaCl, 0.05% Tween 20
[2] = target: flotillin 2-MBP (Laodelphax striatellus); assay: MST; Monolith NT.115; flotillin 2-MBP labeled with NHS-495 held at 10 μM, NP-GST diluted from 17.5 μM to 0.0417 nM; 25°C

Work on NP-GST (natural protein) yielded a Kd [1] of 619 nM, a koff [1] of 0.00382 s⁻¹ and a kon [1] of 6170 M⁻¹ s⁻¹. For the same substance, the Kd [2] was 791 nM.
